B1: DnaJ homolog subfamily C member 5 (Homo sapiens), Q9H3Z4 (parent)
chain: MADQRQRSLSTSGESLYHVLGLDKNATSDDIKKSYRKLALKYHPDKNPDNPEAADKFKEINNAHAILTDATKRNIYDKYGSLGLYVAEQFGEENVNTYFVLSSWWAKALFVFCGLLTCCYCCCCLCCCFNCCCGKCKPKAPEGEETEFYVSPEDLEAQLQSDEREATDTPIVIQPASATETTQLTADSHPSYHTDGFN
partner: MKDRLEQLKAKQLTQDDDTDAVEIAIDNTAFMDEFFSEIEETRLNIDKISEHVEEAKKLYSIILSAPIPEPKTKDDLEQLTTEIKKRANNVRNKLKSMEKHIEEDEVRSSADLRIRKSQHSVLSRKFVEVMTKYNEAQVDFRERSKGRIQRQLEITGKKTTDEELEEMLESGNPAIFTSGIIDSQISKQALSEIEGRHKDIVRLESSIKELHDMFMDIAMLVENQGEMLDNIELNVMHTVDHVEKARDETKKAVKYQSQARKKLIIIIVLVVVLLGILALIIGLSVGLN
B2: DnaJ homolog subfamily C member 5 (Homo sapiens), Q9H3Z4 (parent)
chain: B1 chain
partner: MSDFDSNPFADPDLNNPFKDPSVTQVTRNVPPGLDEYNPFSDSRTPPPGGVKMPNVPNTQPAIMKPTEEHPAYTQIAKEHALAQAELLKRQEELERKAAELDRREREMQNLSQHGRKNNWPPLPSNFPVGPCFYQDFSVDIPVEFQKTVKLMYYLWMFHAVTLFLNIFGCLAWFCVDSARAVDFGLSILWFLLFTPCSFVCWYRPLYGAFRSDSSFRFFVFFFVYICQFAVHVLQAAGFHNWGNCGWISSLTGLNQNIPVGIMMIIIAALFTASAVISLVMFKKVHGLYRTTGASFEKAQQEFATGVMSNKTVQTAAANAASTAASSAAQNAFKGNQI
B3: DnaJ homolog subfamily C member 5 (Homo sapiens), Q9H3Z4 (parent)
chain: B1 chain
partner: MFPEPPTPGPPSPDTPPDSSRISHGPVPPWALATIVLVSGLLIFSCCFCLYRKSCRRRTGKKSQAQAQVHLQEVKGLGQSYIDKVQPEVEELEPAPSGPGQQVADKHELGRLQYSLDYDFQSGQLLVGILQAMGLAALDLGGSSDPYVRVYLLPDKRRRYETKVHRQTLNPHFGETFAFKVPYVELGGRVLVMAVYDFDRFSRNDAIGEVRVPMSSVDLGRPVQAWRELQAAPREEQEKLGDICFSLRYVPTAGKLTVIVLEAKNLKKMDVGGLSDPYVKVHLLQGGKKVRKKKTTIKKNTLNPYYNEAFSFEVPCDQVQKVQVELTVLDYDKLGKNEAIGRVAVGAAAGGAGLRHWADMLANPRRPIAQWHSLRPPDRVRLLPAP
B4: DnaJ homolog subfamily C member 5 (Homo sapiens), Q9H3Z4 (parent)
chain: B1 chain
partner: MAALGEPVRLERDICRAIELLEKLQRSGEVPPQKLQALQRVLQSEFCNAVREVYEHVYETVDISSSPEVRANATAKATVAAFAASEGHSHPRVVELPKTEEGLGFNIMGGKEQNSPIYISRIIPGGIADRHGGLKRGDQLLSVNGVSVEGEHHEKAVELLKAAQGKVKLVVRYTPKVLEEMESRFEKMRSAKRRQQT
B5: DnaJ homolog subfamily C member 5 (Homo sapiens), Q9H3Z4 (parent)
chain: B1 chain
partner: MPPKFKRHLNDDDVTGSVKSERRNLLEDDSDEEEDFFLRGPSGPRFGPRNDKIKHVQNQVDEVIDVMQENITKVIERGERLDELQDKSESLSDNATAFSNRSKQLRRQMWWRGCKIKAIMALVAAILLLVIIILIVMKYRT
B6: DnaJ homolog subfamily C member 5 (Homo sapiens), Q9H3Z4 (parent)
chain: B1 chain
partner: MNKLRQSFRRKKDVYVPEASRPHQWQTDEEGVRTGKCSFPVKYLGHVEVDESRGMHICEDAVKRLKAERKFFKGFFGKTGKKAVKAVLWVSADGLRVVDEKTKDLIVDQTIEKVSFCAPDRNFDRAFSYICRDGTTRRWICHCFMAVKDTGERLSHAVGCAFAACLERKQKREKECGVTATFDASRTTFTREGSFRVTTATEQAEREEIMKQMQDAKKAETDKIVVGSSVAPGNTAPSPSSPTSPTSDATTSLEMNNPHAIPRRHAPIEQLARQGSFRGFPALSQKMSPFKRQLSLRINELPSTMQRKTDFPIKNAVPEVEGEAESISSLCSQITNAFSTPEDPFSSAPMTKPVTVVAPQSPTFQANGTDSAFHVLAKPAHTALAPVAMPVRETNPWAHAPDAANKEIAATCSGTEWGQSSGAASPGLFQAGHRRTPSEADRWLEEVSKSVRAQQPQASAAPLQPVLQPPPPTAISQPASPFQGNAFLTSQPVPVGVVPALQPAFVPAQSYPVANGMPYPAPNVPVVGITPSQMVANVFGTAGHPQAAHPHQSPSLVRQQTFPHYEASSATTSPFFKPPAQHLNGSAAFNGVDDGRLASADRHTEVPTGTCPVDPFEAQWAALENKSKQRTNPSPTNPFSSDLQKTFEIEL
B7: DnaJ homolog subfamily C member 5 (Homo sapiens), Q9H3Z4 (parent)
chain: B1 chain
partner: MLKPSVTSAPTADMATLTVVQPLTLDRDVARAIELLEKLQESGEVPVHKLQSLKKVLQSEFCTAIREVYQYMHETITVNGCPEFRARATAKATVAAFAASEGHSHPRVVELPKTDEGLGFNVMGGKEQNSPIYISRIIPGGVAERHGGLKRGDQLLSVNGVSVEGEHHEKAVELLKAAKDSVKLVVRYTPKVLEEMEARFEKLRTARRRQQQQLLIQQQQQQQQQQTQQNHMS
B8: DnaJ homolog subfamily C member 5 (Homo sapiens), Q9H3Z4 (parent)
chain: B1 chain
partner: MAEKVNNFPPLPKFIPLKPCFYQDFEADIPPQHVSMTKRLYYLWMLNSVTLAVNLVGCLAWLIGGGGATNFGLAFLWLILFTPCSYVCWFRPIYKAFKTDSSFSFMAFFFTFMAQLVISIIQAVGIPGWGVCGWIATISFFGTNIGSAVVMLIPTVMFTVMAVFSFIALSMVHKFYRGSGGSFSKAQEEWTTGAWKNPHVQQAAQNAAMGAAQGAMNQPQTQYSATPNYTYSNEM
B9: DnaJ homolog subfamily C member 5 (Homo sapiens), Q9H3Z4 (parent)
chain: B1 chain
partner: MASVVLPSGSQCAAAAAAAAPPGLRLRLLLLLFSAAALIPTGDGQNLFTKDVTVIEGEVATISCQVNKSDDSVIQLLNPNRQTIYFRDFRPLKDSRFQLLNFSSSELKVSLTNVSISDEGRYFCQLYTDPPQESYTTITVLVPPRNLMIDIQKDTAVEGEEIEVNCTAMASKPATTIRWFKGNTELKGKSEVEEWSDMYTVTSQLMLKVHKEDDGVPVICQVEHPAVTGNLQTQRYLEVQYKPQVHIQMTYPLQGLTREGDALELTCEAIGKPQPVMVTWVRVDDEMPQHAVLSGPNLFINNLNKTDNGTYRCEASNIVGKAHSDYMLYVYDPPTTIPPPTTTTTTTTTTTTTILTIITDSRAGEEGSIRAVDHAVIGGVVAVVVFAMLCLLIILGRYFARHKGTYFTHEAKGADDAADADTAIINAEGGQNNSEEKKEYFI

Variants of B1 are the subject of the first experiment. To be noted: with stx3_human STX3, Q13277.
In the case of L115R, the “effect of a mutation on the interaction” value is “with no effect”.

Variants of B2 are the subject of another experiment. The settings on record: with scam1_human SCAMP1, O15126.
For the variant L115R, the “effect of a mutation on the interaction” value was “with no effect”.

The variants in another experiment derive from B3. To be noted: with syt5_human SYT5, O00445.
On to L115R, for which the “effect of a mutation on the interaction” value was “with no effect”.

The variants in another experiment derive from B4. The settings on record: with lin7c_human LIN7C.
For the variant L115R, the “effect of a mutation on the interaction” value is given as “with no effect”.

Variants of B5 are the subject of a further experiment. The settings on record: with vamp4_human VAMP4, O75379.
On to L115R, for which the “effect of a mutation on the interaction” value is “with no effect”.

A further experiment covers variants of B6. The settings on record: with numb_human NUMB.
Regarding L115R, the “effect of a mutation on the interaction” value is on record as “with no effect”.

In another experiment the parent is B7. To be noted: with lin7a_human LIN7A.
Turning to L115R, the “effect of a mutation on the interaction” value was “with no effect”.

The variants in another experiment derive from B8. The settings on record: with scam5_human SCAMP5, Q8TAC9.
Regarding L115R, the “effect of a mutation on the interaction” value is recorded as “with no effect”.

In the next experiment the parent is B9. The settings on record: with cadm1_human CADM1, Q9BY67.
In the case of L115R, the “effect of a mutation on the interaction” value is on record as “decreasing interaction strength”.

For the origin of these results see IntAct's records for PubMed 29997244.
